Data published in the nanobody polyreactivity screen of Harvey et al. (2022).

Assay: yeast display, Sf9 membrane polyspecificity reagent, FACS + sequencing; frameworks hold sequencing errors
Outline: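 Polyreactivity labels are assigned by the sorting gate from which each nanobody was recovered. The gates were low and high (top ~1%), set on anti-HA fluorescence for expression and streptavidin fluorescence for reagent binding. Before sorting, galactose-induced (36–48 hours) yeast display cells were stained for 1 hour at 4 °C with 10% biotinylated, detergent-solubilized Sf9 membrane reagent.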

Row | Sequence | polyreactivity (PSR sort gate)
1 | QVQLVESGGGLVQAGGSLRLSCAASGSTFDSYAMGWYRQAPGKEREFVAAISSCAGSSGRTSYADSVKGRFTISRDNATNTVYLQMNSLKPEDTAVYYCAKEYTLAKYREYDYWGQGTQVTVSS | low polyreactivity
2 | QVQLVESGGGLVQAGGSLRLSCAASGSTFDSYAMGWYRQAPGKERELVAAISTSGGSTYYADSVKGRFTISRDNAKNTVYLQMNSLKPEDTAVYYCAAYSISSRMNYWGQGSQVTVSS | high polyreactivity
3 | QVQLVESGGGLVQAGGSLRLSCAASGSTFDSYAMGWYRQAPGKERELVAAITTTGGSTFYADSVKGRFTISRDNAKNTVYLQMNSLKPEDTAVYYCAADDGWQEFEYWGQGTQVTVSS | low polyreactivity
4 | QVQLVESGGGLVQAGGSLRLSCAASGSTFDSYAMGWYRQAPGKERELVAAITTTGGSTFYADSVKGRFTISRDNAKNTVYLQMNSLKPEDTAVYYCADDDGWQEFEYWGQGTQVTVSS | low polyreactivity
5 | QVQLVESGGGLVQAGGSLRLSCAASGSTFDTNAMGWSRPAPGKEREWVAAITWRGGRTSYADSVKGRFTISRDNAKNTVYLQMNSLKPEDTAVYYCAAGYKFGPPAAGTFSDFDYWGQGTQVTVTS | low polyreactivity
6 | QVQLVESGGGLVQAGGSLRLSCAASGSTFDTNAMGWYRQAPGKERELVAAISASGGSTYYADSVKGRFTISRDNAKNTVYLQMNSLKPEDTAVYYCAATSGRAFKYDYWGQGTQVTVSS | high polyreactivity
7 | QVQLVESGGGLVQAGGSLRLSCAASGSTFDTNAMGWYRQAPGKERELVATITSIGGSKYADSVKGRFTISRDNAKNTVYLQMNSLIPEDTAVYYCATDYVEIDYDYDYWGQGTQVSVSS | low polyreactivity
8 | QVQLVESGGGLVQAGGSLRLSCAASGSTFDTNAMGWYRQAPGKERELVATITSIGGSTYADSVKGRFTISRDNAKNTVYLQMNSLKPEDTAVYYCATDYVEIDYDYDYWGQGTQVTLSS | low polyreactivity
9 | QVQLVESGGGLVQAGGSLRLSCAASGSTFDTNVMGWYRQAPGKERDLVAAIDVSGGSTYYADSVKGRFTISRDNAKNTVYLQMNSLKPVDTAVYYCAAVDGKYGMDYWGQGTQVTVST | low polyreactivity
10 | QVQLVESGGGLVQAGGSLRLSCAASGSTFDVYAKGWYRQAPGKEWELVAAISRSGGSTYYADSVKGRFTISRDNAKNTVYLQMNSLKPEDTAVYYCNPRLARWGSDEYNYWGQGTQETVSS | low polyreactivity
11 | QVQLVESGGGLVQAGGSLRLSCAASGSTFDVYAMGWYRQAPGKERELVAAIDVRDSTTYYADSVKGRFTISRDNAKNTVYLQMNSLKPEDTAVYYCAAEADIEYGDDDYWGQGTQVTVSS | high polyreactivity
12 | QVQLVESGGGLVQAGGSLRLSCAASGSTFDVYAMGWYRQAPGKERELVAAISYIGDNTYYADSVKGRFTISRDNAKNTVYLQMNSLKPEDTAVYYCAAEAEHYSFQDYYVEYDYWGQGTQVTVSS | high polyreactivity
13 | QVQLVESGGGLVQAGGSLRLSCAASGSTFDYNAMGWYRQAPGKERELVAAITTIGGSTYYADSVKGRFTISRDNAKNTVYLQMNSLKPEDTAVYYCAADLRVWGRSGYDYWGQGTQVTVSS | low polyreactivity
14 | QVQLVESGGGLVQAGGSLRLSCAASGSTFDYNAMGWYRQAPGKERELVADITGSGASTSYADSVKGRFTISRDNAKNTVYLQMNSLKPEDTAVYYCAATGYSSWTYYTHEYWGQGTQVTVSS | low polyreactivity
15 | QVQLVESGGGLVQAGGSLRLSCAASGSTFDYNAMGWYRQAPGKERELVATISSSVGSTYYADSVKGRFTISRDNAKNTVNLQMNSLKPEDTAVYYCNSDYVAYGPEYDYWGQGTQVTVSS | low polyreactivity
16 | QVQLVESGGGLVQAGGSLRLSCAASGSTFDYNTMGWYIQAPGKERELVAAISESGGSTYYADSVKGRFTISRDNAKNTVYLQMNSLKPEDTAVYYCATDDFGGYFGEYDYWGQGTQVTVSS | low polyreactivity
17 | QVQLVESGGGLVQAGGSLRLSCAASGSTFDYSGMGWDIQAPGKERELVATITRRGGNTYYADSVKGRITISRDNANNTDYLQMNSLKPEDTAVYNCNVTPVRGSPEYGNWGQGTQVTVSS | high polyreactivity
18 | QVQLVESGGGLVQAGGSLRLSCAASGSTFDYYALGWYRQAPGKETELVAAISRSGVRTYYADSVKGRFTISRDNAKNTVYLQMNSLKPEDTAVYYCAAQVIPKFDWGQGTQVTVSS | high polyreactivity
19 | QVQLVESGGGLVQAGGSLRLSCAASGSTFDYYAMGWYRQAPGKERELVAAISRSGGRTYYADSVKGRFTISRDNAKNTVYLQMNSLKPEDTAVYYCAADKPVIGTYSRYDYWGQGTQVTVSS | high polyreactivity
20 | QVQLVESGGGLVQAGGSLRLSCAASGSTFDYYAMGWYRQAPGKERELVAAISRTGGRTYYADSVKGRFTISRDNAKNTVFLQMNSLKPEDTAVYYCAARGGWVRRYGWRLDYWGQGTQVTVSS | low polyreactivity
21 | QVQLVESGGGLVQAGGSLRLSCAASGSTFDYYAMGWYRQAPGKERELVAAITSTGSTYYADSVKGRFTISRDNAKNTVYLQMNSLKPEDTAVYYCAADDIYKYYQYYAFPYYRYDYWGQGTQVTVSS | low polyreactivity
22 | QVQLVESGGGLVQAGGSLRLSCAASGSTFDYYDMGWYRQAPGKARELVAAISSGGDSTYYADSVKGRFTISRDNAKNTVYLQMNSLKPEDTAVYYCAAAVYYGQSVWYYYWGQGTQVTVSS | high polyreactivity

Row | Sequence | polyreactivity (PSR sort gate)
23 | QVQLVESGGGLVQAGGSLRLSCAASGSTFDYYGMGWYRQAPGKERELVAAITTSGGSTYYADSVKGRFTISRDNAKNTVYLQMNSLKPEDTAVYYCAAESYWYGTSPYYYLYEYDYWGQGTQVTVSS | high polyreactivity
24 | QVQLVESGGGLVQAGGSLRLSCAASGSTFDYYSMGWYRQAPGKERELVAAISYSGSRTYYADSVKGRFTISRDNAKNTVYLQMNSLKPEDTAVYYCAARRGYVKGKTYDYWGQGTQVTVSS | high polyreactivity
25 | QVQLVESGGGLVQAGGSLRLSCAASGSTFEDYVMGWYRQAPGKERELVAAITSGDNTKYADSVKGRFTISRDNAKNTVYLQMNSLKPEDTAVYYCNADFPDVRSEYDYWGQGTQVTVSS | high polyreactivity
26 | QVQLVESGGGLVQAGGSLRLSCAASGSTFEEYAMGWYRKAPGKERELVAGITWGGGSTYYADSVKGRFTISRDNAKNTVYLQMNSLKPEDTAVYYCVFAFEYYYWGQGTQVTVSS | low polyreactivity
27 | QVQLVESGGGLVQAGGSLRLSCAASGSTFEFNDMGWYIQAPGKERELVASIRHSDGSTYYADSVKGRFTISRDNAKNTVYLQMNSLKPEDTAVYYCNKAFQWSGGQVSYDYWGQATQVTVSS | low polyreactivity
28 | QVQLVESGGGLVQAGGSLRLSCAASGSTFEGYAMGWYRQAPGKEMELVAAISSSGGTTNYADSVKGRFTISRDNAKNTVYLQMNSLKPEDTAVYYCAARKYAKYFYHYDYWGQGTQVTVSS | low polyreactivity
29 | QVQLVESGGGLVQAGGSLRLSCAASGSTFENNAMGWYRQAPGKERELVASSTNYADSVKGRFTISRDNAKNTVYLQMNSLKPEDTAVYYCNLDTNSSYEFNSWGQGTQVTVSS | low polyreactivity
30 | QVQLVESGGGLVQAGGSLRLSCAASGSTFENNVMAWYRQAPGKERELVATITWGDGSTSYADSVKGRFTISRDNAKNTVYLQMNSLKPEDTAVYYCAADSAENVYRGYYWGQGTQVTVSS | low polyreactivity
31 | QVQLVESGGGLVQAGGSLRLSCAASGSTFESNAMGWYRQAPGKERELVASISGSGGSTFYADSVKGRFTISRDNAKNTVYLQMNSLKPEDTAVYYCAAYKEPYYEEYGYWGQGTQVTVSS | low polyreactivity
32 | QVQLVESGGGLVQAGGSLRLSCAASGSTFESNFMGWYRQAPGKEWELVAAITWTGGSTYYADSVKGRFTISRDNAKNNVYLQMNSLKPVDTAVYYCATYDPGPLLGSDYWGHGTQVTVSS | low polyreactivity
33 | QVQLVESGGGLVQAGGSLRLSCAASGSTFESYAMGWYRQAPGKERELVAAISRRGGRTYYADSVKGRFTISRDNAKNTVYLQMYSLKPEDTAVYYCATDSSYYGSDDYWGQGTQVNVSS | high polyreactivity
34 | QVQLVESGGGLVQAGGSLRLSCAASGSTFETNAMGWYRQAPGKERELVAAISVSGGDTYYADSVKGRFTISRDNAKNTVYLQMNSLKPEDTAVYYCAAAERGYIFPDRMRYDYWGQGTQVTVSS | low polyreactivity
35 | QVQLVESGGGLVQAGGSLRLSCAASGSTFETNGMGWYRQAPGKERELVAAITSGGSTYYADSVKGRFTISRDNAKNTVYLQMNSLKPEDTAVYYCAAVDGGWAYDPYDYWGQGTQVTVSS | low polyreactivity
36 | QVQLVESGGGLVQAGGSLRLSCAASGSTFEVNAMGWYRQAPGKERELVAAISSSAGDTYYADSVKGRFTISRDNAKNTVYLQMNSLKPEDTAVYYCAAKGFPRSGYPYQAQHMYYWGQGTQVTVSS | low polyreactivity
37 | QVQLVESGGGLVQAGGSLRLSCAASGSTFEYNAMGWYRQAPGKERELVASSTNYADSVKGRFTISRDNAKNTVYLQMNSLKPEDTAVYYFAREQGVNRNHDYWGQGTQVTVSS | low polyreactivity
38 | QVQLVESGGGLVQAGGSLRLSCAASGSTFEYNAMGWYRQAPGKERELVASSTNYADSVKGRFTISRDNAKNTVYLQMNSLKPEVTAVYYCAAYQDYVYSESLFSVSARMYYWGQGTQVTVSS | low polyreactivity
39 | QVQLVESGGGLVQAGGSLRLSCAASGSTFEYYAMGWYRQAPGKERELLATISIDGRTNYADSVKGRFTISRDNAKNTVYLQLYSVKPEDTAVYYCGARPYWRHRYDYWGQGTQVTVSS | low polyreactivity
40 | QVQLVESGGGLVQAGGSLRLSCAASGSTFEYYAMGWYRQAPGKERELVAAITTSGGITYYADSVKGRFTISRDNAKNTVYLQMNSLKPEDTAVYYCNADAVPLPTLVTYLYDYWGQGTQVTVSS | low polyreactivity
41 | QVQLVESGGGLVQAGGSLRLSCAASGSTFEYYAMGWYRQAPGKERELVATISIDGRTNYADSVKGRFTISRDNAKNTVYLQMNSLKPEDTAVYYCAADTNWSPGYIMYYRSDYWGQGTQVTVSS | low polyreactivity
42 | QVQLVESGGGLVQAGGSLRLSCAASGSTFEYYAMGWYRQAPGKERELVAVITNGGSTNYADSVKGRFTISRDNAKNTVYLQKNSLKPEDTAVYYCNAERRVFYYFDYDFWGLGTQVTVSS | low polyreactivity
43 | QVQLVESGGGLVQAGGSLRLSCAASGSTFFDYAMGWYRQAPGKVRELVAVISDGGTTTYADSVKGRFTISRDNAKNTVYLQMNSLKPEDTAVYYCAAENQDGLLVILGGYGYWGQGTQVTVSS | low polyreactivity
